Measured values as given in US20040180417A1, “Secretase/sheddase with asp-ase activity on the beta-site app-cleaving enzyme (bace, asp2, memepsin2)” (priority 2000, published 2004).

B1: PC7 (protein)
chain: SIHFNDPKYPQQWHLNNRRSPGRDINVTGVWERNVTGRGVTVVVVDDGVEHTVQDIAPNYSPEGSYDLNSNDPDPMPHPDEENGNHHGTRCAGEIAAVPNNSFCAVGVAYGSRIAGIRVLDGPLTDSMEAVAFNKHYQINDIYSCSWGPDDDGKTVDGPHQLGKAALQHGVMAGRQGFGSIFVVASGNGGQHNDNCNYDGYANSIYTVTIGAVDEEGRMPFYAEECASMLAVTFSGGDKMLRSIVTTDWDLQKGTGCTEGHTGTSAAAPLAAGMIALMLQVRPCLTWRDVQHIIVFTATQYEDHRADWLTNEAGFSHSHQHGFGLLNAWRLVNAAKIWTSVPYLASYVSPMLKENKAVPRSPHSLEVLWNVSRTDLEMSGLKTLEHVAVTVSITHPRRGSLELKLFCPSGMMSLIGAPRSMDSDPNGFNDWTFSTVRCWGERARGVYRLVIRDVGDEPLQVGILQQWQLTLYGSTWSPVDIKDRQSLLESAMSGKYLHDDFTLPCPPGLKIPEEDGYSITPNTLKT
B2: α2M: wild type α2-macroglobulin (protein, UniProt P01023 24-1474, looked up)
Alpha-2-macroglobulin: SVSGKPQYMVLVPSLLHTETTEKGCVLLSYLNETVTVSASLESVRGNRSLFTDLEAENDVLHCVAFAVPKSSSNEEVMFLTVQVKGPTQEFKKRTTVMVKNEDSLVFVQTDKSIYKPGQTVKFRVVSMDENFHPLNELIPLVYIQDPKGNRIAQWQSFQLEGGLKQFSFPLSSEPFQGSYKVVVQKKSGGRTEHPFTVEEFVLPKFEVQVTVPKIITILEEEMNVSVCGLYTYGKPVPGHVTVSICRKYSDASDCHGEDSQAFCEKFSGQLNSHGCFYQQVKTKVFQLKRKEYEMKLHTEAQIQEEGTVVELTGRQSSEITRTITKLSFVKVDSHFRQGIPFFGQVRLVDGKGVPIPNKVIFIRGNEANYYSNATTDEHGLVQFSINTTNVMGTSLTVRVNYKDRSPCYGYQWVSEEHEEAHHTAYLVFSPSKSFVHLEPMSHELPCGHTQTVQAHYILNGGTLLGLKKLSFYYLIMAKGGIVRTGTHGLLVKQEDMKGHFSISIPVKSDIAPVARLLIYAVLPTGDVIGDSAKYDVENCLANKVDLSFSPSQSLPASHAHLRVTAAPQSVCALRAVDQSVLLMKPDAELSASSVYNLLPEKDLTGFPGPLNDQDNEDCINRHNVYINGITYTPVSSTNEKDMYSFLEDMGLKAFTNSKIRKPKMCPQLQQYEMHGPEGLRVGFYESDVMGRGHARLVHVEEPHTETVRKYFPETWIWDLVVVNSAGVAEVGVTVPDTITEWKAGAFCLSEDAGLGISSTASLRAFQPFFVELTMPYSVIRGEAFTLKATVLNYLPKCIRVSVQLEASPAFLAVPVEKEQAPHCICANGRQTVSWAVTPKSLGNVNFTVSAEALESQELCGTEVPSVPEHGRKDTVIKPLLVEPEGLEKETTFNSLLCPSGGEVSEELSLKLPPNVVEESARASVSVLGDILGSAMQNTQNLLQMPYGCGEQNMVLFAPNIYVLDYLNETQQLTPEIKSKAIGYLNTGYQRQLNYKHYDGSYSTFGERYGRNQGNTWLTAFVLKTFAQARAYIFIDEAHITQALIWLSQRQKDNGCFRSSGSLLNNAIKGGVEDEVTLSAYITIALLEIPLTVTHPVVRNALFCLESAWKTAQEGDHGSHVYTKALLAYAFALAGNQDKRKEVLKSLNEEAVKKDNSVHWERPQKPKAPVGHFYEPQAPSAEVEMTSYVLLAYLTAQPAPTSEDLTSATNIVKWITKQQNAQGGFSSTQDTVVALHALSKYGAATFTRTGKAAQVTIQSSGTFSSKFQVDNNNRLLLQQVSLPELPGEYSMKVTGEGCVYLQTSLKYNILPEKEEFPFALGVQTLPQTCDEPKAHTSFQISLSVSYTGSRSASNMAIVDVKMVSGFIPLKPTVKMLERSNHVSRTEVSSNHVLIYLDKVSNQTLSLFFTVLQDVPVRDLKPAIVKVYDYYETDEFAIAEYNAPCSKDLGNA

What was measured:
[proBACES]FG/V5 = In vitro PC-mediated processing of proBACES (Western blot); type: biochemical, mouse; details: equivalent hydrolytic activities of PCs, 1-4 hours incubation
[1] = tested on: proBACE processing by PC-like enzyme; experiment: proBACE processing in HK293 cells co-expressing [BACEF]FG/V5 and PC-inhibitors (pulse-chase, immunoprecipitation, SDS-PAGE); type: cell-based, human; details: co-expression; 20 min [35S]Met pulse, 90 min chase; FG immunoprecipitation
Description: FIG. 1: HK293 cells were transiently co-transfected with either ([BACEF]FG/V5+BDNF) [control, CTL] (A,C) or ([BACEF]FG/V5+α1-PDX) (B,D) cDNAs. Two days post-transfections the cells were pulse-labeled in the absence or presence of […] BFA for 15 min with [^35S]Met and then chased for 1 or 2h. Cell lysates were immunoprecipitated with either the FG or V5 mAbs and analysed by SDS-PAGE on 8% tricine gels. The migration position of the 53 kDa molecular mass standard and those of proBACE (pBACE) and BACE are emphasized.
FIG. 2: [A] HK293 cells were transiently co-transfected with cDNAs coding for either ([BACEF]FG/V5+BDNF) [control, CTL], ([BACEF-R45A]FG/V5+BDNF) or ([BACEF-R42A]FG/V5+BDNF) or ([BACEF]FG/V5+either α1-PDX, the prosegments of furin, PC5, PC7, SKI-1, furin-mutated (α2M-F) or wild type (α2M) α2-macroglobulin. The cells were pulse-labeled for 20 min with [^35S]Met and then chased for 90 min. Cell lysates were immunoprecipitated with the FG mAb and analysed by SDS-PAGE on 8% tricine gels. [B] HK293 cells were transiently co-transfected with cDNAs coding for either ([BACEF]FG/V5+BDNF) [CTL], ([BACEF]FG/V5+furin) or ([BACEF]FG/V5+α1-PDX). The cells were then pulse-labeled for 2h with Na2[^35SO4]. Cell lysates were immunoprecipitated with the FG or V5 mAbs and analysed by SDS-PAGE on 8% tricine gels. […]

Molecule	ability to process proBACE into BACE ([proBACES]FG/V5)	quantity of the 72 kDa proBACE (pBACEG, Golgi form) [1]
B1	barely, if at all, able	
B2		barely detectable
